The text below walks through data of the supplement of paper PMC10567573.

± gives the standard deviation.

The data set in a line: protein stability index of a GFP-peptide fusion (GPS, HEK-293T) (PSI 1-6); higher = more stable.
The mark [1] stands for this setting: treatment: DMSO, c terminus: a fixed tail appended.
[2] abbreviates: treatment: MLN4924 1 uM, 8 h, c terminus: a fixed tail appended.
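Further: 24-mer peptide tiles fused after GFP, lentivirally expressed, FACS-sorted into six equal bins by GFP/DsRed ratio, decoded by Illumina sequencing, PSI is the read-weighted mean bin number.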

Turning to PQEEIATKKLRLTKPSKSAALHID [INTS4], the protein stability index turned out to be 4.36 ± 0.047 under setting [1] and 4.46 ± 0.1 under setting [2].
For the sequence VSNTYVKQKTSAALSTMGTLICRK [TPD52L3], the protein stability index under setting [1] amounted to 3.41 ± 0.55 and the protein stability index under setting [2] was 2.98 ± 0.41.
Taken in the same sequence, the figures for DKENIYILLEYCSRRSMAHILKAR [PLK2] were 2.2 ± 0.29 and 2.55 ± 0.43.
Consider DLEEERREEEEKTPPETKPDPPVN [PCMTD2], for which the protein stability index by setting is: under setting [1], 5.64 ± 0.37; under setting [2], 5.48 ± 0.48.
Regarding HHFNSSHLEIDDMYTPAYGDFDFD [MYORG], the protein stability index worked out at 4.34 ± 0.11 under setting [1] and 4.23 ± 0.24 under setting [2].
Take NAGLVWFFPWREAKPGSTEKGLPL [MFSD9]: the protein stability index by setting is: under setting [1], 2.23 ± 0.18; under setting [2], 2.16 ± 0.29.
In the same order, the values of QEIMEKYNIKLKWTNQQKLYSRTG [CFHR2] are 2.45 ± 0.32 and 2.66 ± 0.35.
VQRIMVANIEEVLQRGEALSALDS [SEC22B] showed a protein stability index under setting [1] of 2.85 ± 0.17 and a protein stability index under setting [2] of 3.05 ± 0.39.
With FDPKTKRILTLQKANSWFNCRKN [MMP1], the protein stability index worked out at 2.84 ± 0.41 (treatment: DMSO, c terminus: native) and 2.78 ± 0.25 (treatment: MLN4924 1 uM, 8 h, c terminus: native).
For the sequence KIKRLRSQVQVSLEDYINDRQYDS [HNF4A], the protein stability index was 3.23 ± 0.19 under setting [1] and 3.45 ± 0.15 under setting [2].
Consider TIILQQLLPLRTKVAKLLGYSTHA [NLN], for which the protein stability index stood at 2.33 ± 0.26 under setting [1] and 1.92 ± 0.39 under setting [2].
In the same order, the values of IKKPESFSKQIVLRGKSIKRAPGE [NEUROD6] are 3.9 ± 0.12 and 4 ± 0.22.
Taken in the same sequence, the figures for FRYLQGMLEAGEGGDWPGPGGPRN [PDLIM4] were 2.76 ± 0.12 and 3.64 ± 0.49.
In the same order, the values of ACHPFLLGPPLVRKRIHDSRVAGF [TOR1AIP2] are 2.51 ± 0.39 and 2.5 ± 0.18.
In the case of PYFSPSASFHHKLHHKRLAKECML [CBY2], the protein stability index runs as follows: under setting [1], 2.56 ± 0.11; under setting [2], 2.5 ± 0.32.
Consider SSSDSDFDDEEPRKFYVHIKPAPA [FCHO1], for which the protein stability index under setting [1] was 4.5 ± 0.27 and the protein stability index under setting [2] was determined as 4.45 ± 0.084.
Take FGWETKIKAWMDRYEEANNNQYSE [KMT2E]: the protein stability index under setting [1] came out at 3.1 ± 0.18 and the protein stability index under setting [2] was determined as 3.58 ± 0.13.
Taken in the same sequence, the figures for MLKIHRSDPQLIVQLRFCGRQPCG [TRADD] were 2.46 ± 0.73 and 1.92 ± 0.39.
Taken in the same sequence, the figures for KTFYKTADISQMLVCTADGDIHLS [TAF7L] were 2.47 ± 0.19 and 2.41 ± 0.34.
For the sequence PFKRFLRKKSKPKKCVKKFVEYCD [SMOC2], the protein stability index by setting is: under setting [1], 2.45 ± 0.091; under setting [2], 2.59 ± 0.26.
Taken in the same sequence, the figures for KAVNDETCKASHITSSVFPSASLG [FBXO34] were 3.66 ± 0.2 and 3.61 ± 0.18.
On to MSADPHLASSLSPSQDERMRSPQN [NOL4L], for which the protein stability index by setting is: under setting [1], 5.17 ± 0.25; under setting [2], 5.15 ± 0.24.
Consider AGELRKPTQEEWRQVVDILWSDPM [PPEF2], for which the protein stability index by setting is: under setting [1], 3 ± 0.53; under setting [2], 2.97 ± 0.082.
As for LGHAVLPSNARGPILSRSTSTGSA [SPRY1], the protein stability index was found to be 3.93 ± 0.18 under setting [1] and 4.15 ± 0.098 under setting [2].
Regarding EKGLPLRKTHVLLGRSHDTVQEAA [MFSD9], the protein stability index is, setting by setting: under setting [1], 4.22 ± 0.23; under setting [2], 4.15 ± 0.34.
For TSCIVIILIIISVIVQIKQPRKKY [NETO1], the protein stability index runs as follows: under setting [1], 3.26 ± 0.17; under setting [2], 3 ± 0.16.
Taken in the same sequence, the figures for SVHFDGETIEGAPPLWAASAAGHL [FEM1A] were 3.42 ± 0.07 and 3.47 ± 0.5.
In the same order, the values of LASQNKPLWQCYLGRFNDINVPIR [PDS5B] are 2.03 ± 0.73 and 2.72 ± 0.058.
In the same order, the values of FRADQRSGPRQLLTLYNPTGTALR [MOSPD3] are 3.2 ± 0.22 and 3.39 ± 0.35.
Consider VHYLHSKRIAHFDLKPENIMLLDK [DAPK3], for which the protein stability index turned out to be 2.33 ± 0.34 under setting [1] and 2.17 ± 0.28 under setting [2].
Regarding AEAERLDVKAMGPLVLTEVLFNEK [EIF5], the protein stability index is 4.01 ± 0.2 under setting [1] and 4.17 ± 0.24 under setting [2].
In the same order, the values of AEPLKEDKPVTGPRNKTENGLTPK [ATF6] are 5.5 ± 0.26 and 5.35 ± 0.18.
For the sequence HGHLILHSMHKYQPRIHLVRAAQL [TBX6], the protein stability index under setting [1] is 2.1 ± 0.29 and the protein stability index under setting [2] was found to be 2.07 ± 0.27.
In the same order, the values of IISAHIHPVCSLCWSRDGHKLVSA [RBBP5] are 2.45 ± 0.37 and 2.14 ± 0.24.
In the same order, the values of TFSGDVQLAQDDIDGIQAIYGRSQ [MMP1] are 4.27 ± 0.21 and 4.55 ± 0.14.
Taken in the same sequence, the figures for CDSTNAAIAKQALKKPIKGKQAPR [KMT5A] were 4.79 ± 0.22 and 4.74 ± 0.29.
The sequence TIKVSYARPSSASIRDANLYVSGL [ELAVL3] came in with a protein stability index under setting [1] of 2.37 ± 0.076 and a protein stability index under setting [2] of 2.23 ± 0.3.
Take TKQNFFSQTPILQALQHVQASCDE [INTS3]: the protein stability index was 3.95 ± 0.12 under setting [1] and 4.16 ± 0.23 under setting [2].
Consider SQEAADTPDTRHPCSLGSSLVADY [YJU2B], for which the protein stability index was determined as 4.34 ± 0.35 under setting [1] and 4.59 ± 0.21 under setting [2].
In the same order, the values of RSRIEALELLGASFANDRENYDII [FEM1B] are 3.42 ± 0.27 and 3.52 ± 0.14.
Take RDLINCCYVSRRLSQLSSHDPLWR [FBXO3]: the protein stability index runs as follows: under setting [1], 2.09 ± 0.28; under setting [2], 2.31 ± 0.29.
In the same order, the values of CPVVRNGSVAVVEAECEKSSATTY [SLC6A17] are 4.64 ± 0.44 and 4.82 ± 0.17.
Turning to ELEKAHLALIDYLTQKRSQLVKKL [VPS39], the protein stability index runs as follows: under setting [1], 2.28 ± 0.39; under setting [2], 2.58 ± 0.23.
Take MSRVHGMHPKETTRQLSLAVKDGL [ZMYND11]: the protein stability index under setting [1] worked out at 3.83 ± 0.22 and the protein stability index under setting [2] turned out to be 3.89 ± 0.4.
TAAGGQGGPGGPGSDKQQQQQHIE [NR2F2]: the protein stability index was 5.34 ± 0.27 under setting [1] and 5.47 ± 0.19 under setting [2].
On to TEHEKKQKLETDAMFRLEHGEADR [YJU2B], for which the protein stability index reads like this: under setting [1], 5.32 ± 0.12; under setting [2], 5.46 ± 0.3.
ELLDLSKQYDQQFPDGDDEFDSPH [STX11]: the protein stability index was 4.89 ± 0.2 under setting [1] and 4.9 ± 0.17 under setting [2].
In the same order, the values of LQQDFQNIQETHRLYRLKLEELTK [TMEM120A] are 3.3 ± 0.38 and 3.37 ± 0.28.
KRFTDAGFEHYDLFFIDGSTPSDN [CDC14A]: the protein stability index runs as follows: under setting [1], 3.45 ± 0.16; under setting [2], 3.45 ± 0.084.
In the same order, the values of SSFPPSPGPSPDVQLATLAQRVKE [AUP1] are 5.1 ± 0.26 and 5.05 ± 0.15.
Sequence KTAHDSNVLHVARLPNRQLISCSE [WDR41] displayed a protein stability index under setting [1] of 3.6 ± 0.28 and a protein stability index under setting [2] of 3.57 ± 0.35.
In the case of EICSEPVAASPAPAGERRIYRHRI [ZNF511], the protein stability index runs as follows: under setting [1], 4.27 ± 0.47; under setting [2], 4.09 ± 0.26.
In the same order, the values of PTVTTSWQSESLPVSLSASQSWHT [BCL2L13] are 3.25 ± 0.31 and 3.12 ± 0.22.
Take VLFSVAGGLFVGKEGPMIHSGSVV [CLCN6]: the protein stability index was 2.58 ± 0.34 under setting [1] and 2.74 ± 0.5 under setting [2].
Take TGILIFAIGVGQVDFNTLKSIGSE [MATN2]: the protein stability index reads like this: under setting [1], 3.69 ± 0.069; under setting [2], 3 ± 0.56.
For GILEHVDSASPVEDTSNDESSILG [M1AP], the protein stability index was found to be 5.56 ± 0.26 under setting [1] and 5.48 ± 0.4 under setting [2].
Take EEYCHKHYDRNKDGNKDVYLSLLR [VPS39]: the protein stability index under setting [1] was 3.23 ± 0.35 and the protein stability index under setting [2] is 3.19 ± 0.27.
On to VEPKHCFTSPDYQQQCHEMAERLE [SDE2], for which the protein stability index worked out at 4.85 ± 0.21 under setting [1] and 4.83 ± 0.18 under setting [2].
Taken in the same sequence, the figures for SAEQLKAQAIDFINRCSVLRQLGC [SPOPL] were 2.21 ± 0.33 and 2.51 ± 0.28.
Taken in the same sequence, the figures for ISDNSISWSAGLHNRYTENSLRGV [FUT8] were 2.87 ± 0.29 and 2.87 ± 0.15.
In the same order, the values of AILQNHTDFKDKIVLDVGCGSGIL [CARM1] are 2.31 ± 0.21 and 2.34 ± 0.25.
With ELQQRNPKAERLRWSPAQEESFRQ [ZNF232], the protein stability index was 3.3 ± 0.37 under setting [1] and 3.49 ± 0.77 under setting [2].
As to QKLETDAMFRLEHGEADRSTLKKA [YJU2B], the protein stability index reads like this: under setting [1], 5.22 ± 0.22; under setting [2], 5.03 ± 0.14.
KTRVDLKELGQSQKEQGLSDNILS [PDZK1]: the protein stability index is, setting by setting: under setting [1], 4.55 ± 0.1; under setting [2], 4.88 ± 0.4.
With QELLERGLLQLDHRGLRCSWEGLA [RSAD1], the protein stability index by setting is: under setting [1], 2.31 ± 0.2; under setting [2], 2.6 ± 0.23.
Consider SWSIQMRQHHHQSSFPGSLPQETN, for which the protein stability index runs as follows: under setting [1], 3.51 ± 0.1; under setting [2], 3.53 ± 0.11.
Taken in the same sequence, the figures for GVMSAYAMCVRYDGVEVDDSYCDA [ADAMTSL2] were 3.05 ± 0.15 and 2.91 ± 0.23.
For KFPGQSSFLWQRGRKFLQKHLNAS [TOR1AIP2], the protein stability index runs as follows: under setting [1], 2.47 ± 0.14; under setting [2], 2.51 ± 0.22.
Taken in the same sequence, the figures for SALFAGNEWRRPIIQFVESGDDKN [TRIM29] were 4.37 ± 0.23 and 4.13 ± 0.25.
On to ERLAKNLVEKGVLTTEKQNFLLFD [GOLPH3], for which the protein stability index runs as follows: under setting [1], 3.16 ± 0.52; under setting [2], 3.43 ± 0.34.
In the same order, the values of TDGERVAEVAPEERENVAVAKLQE [SDE2] are 5.59 ± 0.34 and 5.49 ± 0.38.
For TINIKCHVHDPHGQVIWGMSWAKL [FBXO39], the protein stability index reads like this: under setting [1], 2.84 ± 0.5; under setting [2], 2.67 ± 0.46.
